T1: recombinant human B7-H2 (ACROBiosystems) (human, UniProt O75144 19-258, limits assumed)
T1 construct: counted here as a B7 family member
T1 sequence (looked up): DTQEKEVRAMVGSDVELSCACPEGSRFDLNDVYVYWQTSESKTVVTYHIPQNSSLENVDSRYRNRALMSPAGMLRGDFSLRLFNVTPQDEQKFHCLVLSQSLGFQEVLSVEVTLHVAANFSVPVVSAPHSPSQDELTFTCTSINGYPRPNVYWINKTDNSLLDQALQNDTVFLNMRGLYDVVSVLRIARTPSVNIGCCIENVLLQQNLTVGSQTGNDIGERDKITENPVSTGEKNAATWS

T2: recombinant human CD86 (ACROBiosystems) (human, UniProt P42081 26-247, limits assumed)
T2 construct: counted here as a B7 family member
T2 sequence (looked up): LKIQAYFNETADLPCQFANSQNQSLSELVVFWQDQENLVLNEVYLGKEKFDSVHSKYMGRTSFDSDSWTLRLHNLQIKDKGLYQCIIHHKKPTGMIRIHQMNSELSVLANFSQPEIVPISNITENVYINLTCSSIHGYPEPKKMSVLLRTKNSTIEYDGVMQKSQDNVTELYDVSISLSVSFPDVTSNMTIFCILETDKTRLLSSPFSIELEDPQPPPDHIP

B1: chimeric anti-human CD47 monoclonal antibody mAb-18-5 N297A (antibody, human IgG1, kappa, N297A)
heavy: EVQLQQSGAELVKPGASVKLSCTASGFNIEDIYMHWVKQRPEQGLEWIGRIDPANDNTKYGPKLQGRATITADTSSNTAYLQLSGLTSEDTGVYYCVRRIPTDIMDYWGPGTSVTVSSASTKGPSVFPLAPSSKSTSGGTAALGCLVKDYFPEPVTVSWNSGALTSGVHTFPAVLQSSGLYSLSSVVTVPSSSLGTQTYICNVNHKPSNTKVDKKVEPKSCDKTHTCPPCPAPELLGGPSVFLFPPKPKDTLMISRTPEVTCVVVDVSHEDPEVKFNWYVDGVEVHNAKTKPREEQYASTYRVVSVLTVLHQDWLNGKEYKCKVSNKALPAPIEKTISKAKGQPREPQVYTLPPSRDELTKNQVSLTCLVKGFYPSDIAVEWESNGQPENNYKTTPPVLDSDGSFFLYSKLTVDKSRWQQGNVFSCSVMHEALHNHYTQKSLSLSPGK
light: DIVMTQSQKFMSTSVGDRVSITCKASQNVRTSIAWYQQKSGQSPKTLIYLASNRHTGVPDRFTGSGSGTDFTLTISNVQSEDLADYFCLQHWNYPFTFGSGTKLEIKRTVAAPSVFIFPPSDEQLKSGTASVVCLLNNFYPREAKVQWKVDNALQSGNSQESVTEQDSKDSTYSLSSTLTLSKADYEKHKVYACEVTHQGLSSPVTKSFNRGEC
notes: no further substitution applied
B2: chimeric anti-human CD47 monoclonal antibody mAb-18-10 (antibody, human IgG1, kappa)
heavy: not shown
light: DIVMTQSQKFMSTSVGDRVSITCKASQNVRTSIAWYQQKPGQSPKTLIYLASNRHTGVPDRFTGSGSGTDFTLTISNVQSEDLADYFCLQHWNYPFTFGSGTKLEIKRTVAAPSVFIFPPSDEQLKSGTASVVCLLNNFYPREAKVQWKVDNALQSGNSQESVTEQDSKDSTYSLSSTLTLSKADYEKHKVYACEVTHQGLSSPVTKSFNRGEC

Columns and labels:
[1] = molecular target: T3, recombinant human CD47-Fc protein (ACROBiosystems, catalog number CD7-H52A5) (human, UniProt Q08722 19-139); assay: blocking ELISA: plate coated with human CD47-Fc, 2 nM biotin-labelled SIRPα as the blocked ligand, falling OD450 curve; the sheet labels the half-maximal value EC50
T3 construct: bought; not shown: Fc part of a bought fusion protein, not described
T3 sequence (Q08722 19-139 limits assumed): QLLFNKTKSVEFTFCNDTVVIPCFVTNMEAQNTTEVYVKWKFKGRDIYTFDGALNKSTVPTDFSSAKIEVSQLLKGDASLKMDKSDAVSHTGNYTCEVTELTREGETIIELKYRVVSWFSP
Method: A 96-well high-adsorption ELISA plate was coated with 1 μg/mL of the recombinant human CD47-Fc (ACROBiosystems) at 100 μL per well using carbonate buffer solution, pH=9.6 at 4° C. overnight. The plate was washed 5 times with PBST, and then blocked using PBST with 1% BSA, 300 μL/well, and incubated at 25° C. for 1 hour, and then washed 5 times with PBST. The anti-human CD47 antibody samples were added, 50 μL/well, the biotin-labelled SIRPα (ACROBiosystems) was added at a concentration of 4 nM (a final concentration of 2 nM), 50 μL/well, incubated at 25° C. for 90 minutes, and then washed 5 times with PBST. The Streptavidin-HRP (BD Pharmingen, catalog number 554066) diluted 1:1000 in PBST with 1% BSA was then added, 100 μL per well, and incubated at 25° C. for 1 hour. The plate was washed 5 times with PBST. The colorimetric substrate TMB was added, 100 μL/well, and developed at room temperature for 10 minutes. 1M H₂SO₄ was added, 100 μL/well, to stop the development. The absorbance at 450 nm was read on a microplate reader.

[2] = molecular target: recombinant human SIRPγ (ACROBiosystems) (human, UniProt Q9P1W8 29-360, limits assumed); assay: ELISA, coated recombinant protein
Sequence of recombinant human SIRPγ (ACROBiosystems) (Q9P1W8 29-360 limits assumed): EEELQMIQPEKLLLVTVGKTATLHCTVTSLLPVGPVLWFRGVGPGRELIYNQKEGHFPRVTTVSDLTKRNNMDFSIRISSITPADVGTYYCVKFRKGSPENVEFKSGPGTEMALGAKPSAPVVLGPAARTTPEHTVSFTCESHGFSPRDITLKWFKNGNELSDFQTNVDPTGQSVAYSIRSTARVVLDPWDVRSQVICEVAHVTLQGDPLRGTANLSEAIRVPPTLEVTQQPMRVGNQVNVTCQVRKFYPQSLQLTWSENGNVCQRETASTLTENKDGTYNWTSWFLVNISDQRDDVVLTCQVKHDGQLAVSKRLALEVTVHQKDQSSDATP
Method: (§1) Binding specificity of the chimeric anti-human CD47 mAbs was determined by ELISA. A 96-well high-adsorption ELISA plate was coated with 1 μg/mL of the recombinant human PD1, CD28, CTLA4, ICOS, BTLA, CD47, PD-L2, CD80, CD86, B7-H2, CD47, SIRPα and SIRPγ (all from ACROBiosystems), at 100 μL per well using carbonate buffer solution, pH=9.6 at 4° C. overnight. The plate was washed 5 times with PBST, and then blocked using PBST with 1% BSA, 300 μL/well, and incubated at 25° C. for 1 hour, and then washed 5 times with PBST. The chimeric anti-human CD47 mAb samples serially diluted in PBST with 1% BSA and the control CC-90002 and the isotype control were added, 100 μL/well, incubated at 25° C. for 1 hour, and then washed 5 times with PBST. The horseradish peroxidase-labeled anti-human IgG antibody (Chemicon, catalog number AP309P) diluted 1:10000 in PBST with 1% BSA was then added, 100 μL per well, and incubated at 25° C. for 1 hour. The plate was washed 5 times with PBST. The colorimetric substrate TMB was added, 100 μL/well, and developed at room temperature for 10 minutes. 1M H₂SO₄ was added, 100 μL/well, to stop the development. The absorbance at 450 nm was read on a microplate reader.

[3] = molecular target: T1, recombinant human B7-H2 (ACROBiosystems); assay: ELISA, coated recombinant protein
Method: as §1

[4] = molecular target: T2, recombinant human CD86 (ACROBiosystems); assay: ELISA, coated recombinant protein
Method: as §1

[5] = molecular target: T4, recombinant human CD47 (human, UniProt Q08722 19-139); assay: ELISA, plate coated with 1 µg/mL recombinant human CD47, OD450
T4 construct: also called antigen CD47
T4 sequence (Q08722 19-139 limits assumed): as the sequence (Q08722 19-139 limits assumed) above
Method: A 96-well high-adsorption ELISA plate was coated with 1 μg/mL of the recombinant human CD47 (Sino Biological Inc.) at 100 μL per well using carbonate buffer solution, pH=9.6 at 4° C. overnight. The plate was washed 5 times with PBST, and then blocked using PBST with 1% BSA, 300 μL/well, and incubated at 25° C. for 1 hour, and then washed 5 times with PBST. The anti-human CD47 antibody samples and the control CC-90002 (a patent sequence from WO2016109415) were added, 100 μL/well, incubated at 25° C. for 1 hour, and then washed 5 times with PBST. The horseradish peroxidase-labeled anti-mouse IgG antibody (Abcam, catalog number Ab7068) diluted 1:10000 in PBST with 1% BSA was then added, 100 μL per well, and incubated at 25° C. for 1 hour. The plate was washed 5 times with PBST. The colorimetric substrate TMB was added, 100 μL/well, and developed at room temperature for 10 minutes. 1M H₂SO₄ was added, 100 μL/well, to stop the development. The absorbance at 450 nm was read on a microplate reader.

[6] = molecular target: T4, recombinant human CD47; assay: SPR, Biacore X100, antibody captured on Protein A chip, CD47 as analyte
Text: Biacore X100 instrument (purchased from GE) was used to detect the kinetic constant of the chimeric anti-human CD47 monoclonal antibodies binding to its antigen human CD47. This instrument utilizes optical surface plasmon resonance technology to detect the association and dissociation between the molecules coated on the biochip and the molecules to be tested. The main reagent used is Protein A chip (GE Healthcare, 29-1275-57). The experimental procedure is briefly described as follows: the chimeric anti-human CD47 antibodies were diluted in running buffer (1×HBS-EP+10 mM HEPES, 150 mM NaCl, 3 mM EDTA, 0.05% surfactant P20, pH7.4). During the capture-binding phase, the antibodies at a concentration of 2 μg/mL were injected for 60 seconds at a speed of 10 μL/min. During the binding phase, the antigen CD47 was diluted into multiple concentrations with running buffer, injected for 120 seconds at a speed of 30 μL/min respectively. During the dissociation phase, running buffer was injected for 600 seconds at a speed of 10 μL/min. The regeneration condition is 10 mM glycinate solution, pH1.5. Association kinetic constants and dissociation kinetic constants were analyzed and calculated by Biacore X100 evaluation software. The association kinetic constants, dissociation kinetic constants and dissociation equilibrium constants of the chimeric anti-human CD47 antibodies were shown in Table 7.

| Binder | IC50 [1] [nM] | binding result [2] | binding result [3] | binding result [4] | EC50 [5] [nM] | Kd [6] [nM] | koff [6] [s⁻¹] | kon [6] [M⁻¹ s⁻¹] |
| --- | --- | --- | --- | --- | --- | --- | --- | --- |
| B1 | 1.75 | no binding | no binding | no binding | 0.026 |  |  |  |
| B2 | 1.64 | no binding | no binding | no binding | 0.026 | 1.02 | 0.00101 | 994000 |

Reference: patent US20250277031A1 (BEIJING HANMI PHARMACEUTICAL, published 2025)
